One molecule from patent US20040103447A1, “Schizophrenia-like mental disease model animal, method of constructing the same and use thereof” (priority 2001, published 2004) can be followed below.

Assay [1] concerns SD rats. Put plainly: Prepulse inhibition (PPI) in startle response after neonatal subcutaneous administration. The format is in vivo, rat. The settings on record: 75 db prepulse, 120 db pulse after 100 ms, 1.0 mg/kg s.c. 10 times from 2 days after birth, compared to cytochrome-C group. The source says:
The prepulse inhibition in startle response is a test for perception-response ability using a startle response, which can be commonly evaluated in human and animals, as an index. This test is characterized in that abnormalities in attention and ability to process information in brain, which are considered to be the main disease state of schizophrenia, can be scientifically and objectively evaluated. The test itself is a measurement of decrease in a fright startle response to a big sound, which is attributable to the previous application of a weak sound stimulus (prepulse) of the level incapable of causing a fright startle response, 30-150 mSec before causing a fright startle response by making a noise of about 120 db. The decrease produced by the prepulse is called a prepulse inhibition, which is known to indicate abnormal decrease in schizophrenia patients and schizophrenia animal models (Braff D. L., Geyer M. A., Arch. Gen. Psychiatry, 47, 181-188, 1990).
As the animal, SD rats (Japan SLC) were used from 2 days after birth. As a reagent, human recombinant interleukin 1α and cytochrome-C (Sigma) were each dissolved in physiological saline at 40 μg/mL and used. […] From 21 days after birth, startle response intensity and prepulse inhibition were measured with an apparatus of measuring startle response of small animal (San Diego Instruments). […]

The test system of assay [2] is SD rats. Put plainly: Startle response intensity to 120 db sound after neonatal subcutaneous administration. The format is in vivo, rat. Particulars: 1.0 mg/kg s.c. 10 times from 2 days after birth, compared to cytochrome-C administration group. The method, then:
As the animal, SD rats (Japan SLC) were used from 2 days after birth. As a reagent, human recombinant interleukin 1α and cytochrome-C (Sigma) were each dissolved in physiological saline at 40 μg/mL and used. The reagents were subcutaneously administered 10 times in total (up to 11 days after birth) into the neck at 25 μL (each 1.0 mg/kg) per 1 g of rat body weight […] from 2 days after birth. From 21 days after birth, startle response intensity and prepulse inhibition were measured with an apparatus of measuring startle response of small animal (San Diego Instruments). That is, as a sensory stimulus to induce a startle response, a sound stimulation was used, and as a prepulse stimulation, a sound pressure stimulus of 75 db was given, which was 5 db higher than the environmental noise (background noise) level. After 100 milli-seconds, a pulse stimulus of a sound pressure of 120 db was given. The ratio of decrease in the startle response when prepulse was combined to the startle response with 120 db alone was considered as the prepulse inhibition (PPI).

B1: IL-1α: human recombinant interleukin 1α, a cytokine, dissolved in physiological saline and administered to neonatal rats to induce the model (protein, UniProt P01583 113-271, looked up)
Interleukin-1 alpha: SAPFSFLSNVKYNFMRIIKYEFILNDALNQSIIRANDQYLTAAALHNLDEAVKFDMGAYKSSKDDAKITVILRISKTQLYVTAQDEDQPVLLKEMPEIPKTITGSETNLLFFWETHGTKNYFTSVAHPNLFIATKQDYWVCLAGGPPSITDFQILENQA
For the molecule B1, the prepulse inhibition entry in assay [1] (22 days after birth, FIG. 2B) is “such abnormality was not found”; in assay [1] (60 days after birth, p<0.05, FIG. 2A), “significant decrease”. Besides, the “intensity of startle response to the sound pressure of 120 db” value is given as “such abnormality was not found” in assay [2] (22 days after birth, FIG. 1B) and “significant increase” in assay [2] (60 days after birth, FIG. 1A).
